In the supplement of paper PMC11196671:

Legend:
[1] = PET hydrolysis product formed (TPA+MHET+BHET, UV-Vis) per mg enzyme (mmol/mg enzyme); higher = more PET depolymerisation activity; extreme values may be limits of the assay; details: 24 h
Method: (§1)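 Purified PET hydrolases, 2.5 ug enzyme on 3.5 mg amorphous PET film (aFilm) or crystalline PET powder (cryPow) in 0.5 mL of 50 mM buffer (NaCitrate pH 4.5/5.5, NaPhosphate 6.5/7.5, glycine 8.5/9.5) at 60 or 70 C with shaking for 24 h. Total aromatic product by UV-Vis (260/280 nm, blank-subtracted, normalised per mg enzyme) and individual TPA, MHET, BHET concentrations by UHPLC-DAD at 240 nm; duplicate reactions.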

[2] = terephthalic acid (TPA) released, HPLC; higher = more TPA released; extreme values may be limits of the assay; details: 24 h
Method: as §1

[3] = PET hydrolysis product formed (TPA+MHET+BHET, UV-Vis) per mg enzyme (mmol/mg enzyme); higher = more PET depolymerisation activity; extreme values may be limits of the assay; details: 2 h
Method: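 Purified PET hydrolases (His-SUMO cleaved, E. coli C41(DE3) small-scale expression), 2.5 ug enzyme on 3.5 mg amorphous PET film (aFilm) or crystalline PET powder (cryPow) in 0.5 mL of 50 mM buffer (NaCitrate pH 4.5/5.5, NaPhosphate 6.5/7.5, glycine 8.5/9.5) at 60 or 70 C with shaking for 2 h. Soluble aromatic products (TPA+MHET+BHET) were quantified by UV-Vis at 260/280 nm, blank-subtracted against the no-enzyme control, and normalised per mg enzyme; duplicate reactions.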

[4] = MHET released, HPLC; higher = more MHET released; extreme values may be limits of the assay; details: 24 h
Method: as §1

QTNPYARGPDPTAASLEASAGPFTVRSFTVSRPSGYGAGTVYYPTNAGGTVGAIAIVPGYTARQSSIKWWGPRLASHGFVVITIDTNSTLDQPESRSSQQMAALEQVASLNGTSSSPIYGKVDTARMGVMGWSMGGGGSLISACNNPSLKAAVVQAPWHSSTNFSCVTVPTLIFACENDSIAPVNSSALPIYDSMSENAKQFLEICGGSHSCANTGNSDQALIGKKGVAWMKRFMDNDTRYSTFACENPNSTRVCDFRTANCS [Z1-PETase]
Details | MHET released, [4] [mM] | PET hydrolysis product formed, [1] | PET hydrolysis product formed, [3] | terephthalic acid, [2] [mM]
PET substrate: aFilm, 60 °C, pH 4.5 | 0 | 0 | 0 | 0
PET substrate: aFilm, 60 °C, pH 5.5 | 0 | 0.00483 | 0 | 0
PET substrate: aFilm, 60 °C, pH 6.5 | 0.321 | 0.113 | 0 | 0.227
PET substrate: aFilm, 60 °C, pH 7.5 | 1.88 | 0.617 | 0.032 | 0.685
PET substrate: aFilm, 60 °C, pH 8.5 | 0.249 | 0.103 | 0.03625 | 0.179
PET substrate: aFilm, 60 °C, pH 9.5 | 1.03 | 0.517 | 0.0733 | 1.22
PET substrate: aFilm, 70 °C, pH 4.5 | 0 | 0 | 0 | 0
PET substrate: aFilm, 70 °C, pH 5.5 | 0 | 0 | 0 | 0
PET substrate: aFilm, 70 °C, pH 6.5 | 0 | 0 | 0 | 0
PET substrate: aFilm, 70 °C, pH 7.5 | 0.0119 | 0.00464 | 0 | 0.0109
PET substrate: aFilm, 70 °C, pH 8.5 | 0.00565 | 0 | 0 | 0.00307
PET substrate: aFilm, 70 °C, pH 9.5 | 0 | 0.00672 | 0.00338 | 0.0495
PET substrate: cryPow, 60 °C, pH 4.5 | 0 | 0 | 0 | 0
PET substrate: cryPow, 60 °C, pH 5.5 | 0.053 | 0.0183 | 0 | 0.0408
PET substrate: cryPow, 60 °C, pH 6.5 | 0.476 | 0.126 | 0.0995 | 0.114
PET substrate: cryPow, 60 °C, pH 7.5 | 0.522 | 0.152 | 0.135 | 0.236
PET substrate: cryPow, 60 °C, pH 8.5 | 0.343 | 0.117 | 0.102 | 0.225
PET substrate: cryPow, 60 °C, pH 9.5 | 0.071 | 0.134 | 0.13 | 0.72
PET substrate: cryPow, 70 °C, pH 4.5 | 0 | 0 | 0 | 0
PET substrate: cryPow, 70 °C, pH 5.5 | 0 | 0 | 0 | 0
PET substrate: cryPow, 70 °C, pH 6.5 | 0.125 | 0.0331 | 0.0288 | 0.0337
PET substrate: cryPow, 70 °C, pH 7.5 | 0.181 | 0.0691 | 0.0688 | 0.17
PET substrate: cryPow, 70 °C, pH 8.5 | 0.123 | 0.0403 | 0.0583 | 0.0464
PET substrate: cryPow, 70 °C, pH 9.5 | 0.0142 | 0.0592 | 0.0657 | 0.367

QTNPYARGPNPTAASLEASAGPFTVRSFTVARPVGYGAGTVYYPTNAGGTVGAIAIVPGYTATQSSINWWGPRLASHGFVVITIDTNSTLDKPESRSSQQMAALRQVASLNGTSSSPIYGKVDTARGGVMGWSMGGGGSLISAANNPSLKAAAVMAPWHSSTNFSSVTVPTLIFACENDRIAPVKEYALPIYDSMSLNAKQFLEICGGSHSCACSGNSNQALIGMKGVAWMKRFMDNDTRYSQFACENPNSTAVCDFRTANCS [HotPETase]
Details | MHET released, [4] [mM] | PET hydrolysis product formed, [1] | PET hydrolysis product formed, [3] | terephthalic acid, [2] [mM]
PET substrate: aFilm, 60 °C, pH 4.5 | 0 | 0 | 0 | 0
PET substrate: aFilm, 60 °C, pH 5.5 | 0.282 | 0.126 | 0 | 0.359
PET substrate: aFilm, 60 °C, pH 6.5 | 0.534 | 0.172 | 0.0257 | 0.226
PET substrate: aFilm, 60 °C, pH 7.5 | 3.07 | 1.02 | 0.0712 | 1.04
PET substrate: aFilm, 60 °C, pH 8.5 | 0.303 | 0.116 | 0.0455 | 0.135
PET substrate: aFilm, 60 °C, pH 9.5 | 1.8 | 0.744 | 0.0961 | 1.35
PET substrate: aFilm, 70 °C, pH 4.5 | 0 | 0 | 0 | 0
PET substrate: aFilm, 70 °C, pH 5.5 | 0 | 0 | 0 | 0.00384
PET substrate: aFilm, 70 °C, pH 6.5 | 0.0858 | 0.0334 | 0.00383 | 0.0729
PET substrate: aFilm, 70 °C, pH 7.5 | 0.198 | 0.0761 | 0.0174 | 0.17
PET substrate: aFilm, 70 °C, pH 8.5 | 0.121 | 0.049 | 0.0193 | 0.0776
PET substrate: aFilm, 70 °C, pH 9.5 | 0.077 | 0.175 | 0.092 | 0.684
PET substrate: cryPow, 60 °C, pH 4.5 | 0 | 0 | 0.00338 | 0.0209
PET substrate: cryPow, 60 °C, pH 5.5 | 0.43 | 0.118 | 0.0775 | 0.1228
PET substrate: cryPow, 60 °C, pH 6.5 | 0.527 | 0.14 | 0.106 | 0.157
PET substrate: cryPow, 60 °C, pH 7.5 | 0.655 | 0.195 | 0.131 | 0.3121
PET substrate: cryPow, 60 °C, pH 8.5 | 0.319 | 0.104 | 0.0736 | 0.211
PET substrate: cryPow, 60 °C, pH 9.5 | 0.174 | 0.151 | 0.0954 | 0.681
PET substrate: cryPow, 70 °C, pH 4.5 | 0 | 0 | 0 | 0
PET substrate: cryPow, 70 °C, pH 5.5 | 0.163 | 0.0481 | 0.05472 | 0.07122
PET substrate: cryPow, 70 °C, pH 6.5 | 0.386 | 0.103 | 0.0748 | 0.118
PET substrate: cryPow, 70 °C, pH 7.5 | 0.249 | 0.094 | 0.109 | 0.262
PET substrate: cryPow, 70 °C, pH 8.5 | 0.268 | 0.0775 | 0.0678 | 0.113
PET substrate: cryPow, 70 °C, pH 9.5 | 0.0221 | 0.0809 | 0.0796 | 0.489
